24 molecules from patent US20260193293A1, “PEPTIDES CAPABLE OF INHIBITING PROTEIN-PROTEIN INTERACTIONS AT GABAB1A SUBUNIT AND USES THEREOF” (UNIVERSITY OF COPENHAGEN, priority 2022, published 2026) can be followed below.

Where “and” joins values, the source holds several entries; their conditions need not be identical. Equal entries are not always repeated. Starred links: 1 amine or outer side, 2 acyl side, 3 side chain; linkers in the order of their positions; H or OH if unused. Non-standard residues stand in square brackets, D forms with d. Obtyr = O-benzyl-L-tyrosine, O=C([C@H](Cc1ccc(OCc2ccccc2)cc1)N[*:1])[*:2]; Oetyr = O-ethyl-L-tyrosine, CCOc1ccc(C[C@H](N[*:1])C(=O)[*:2])cc1; 2Nal = N[C@@H](Cc1ccc2ccccc2c1)C(=O)O; Sar = CNCC(=O)O

Experiment [1] addresses Sushi domains (SD1/2) protein of the GABAB1a (GB1a) subunit, recombinant. The experiment is described as follows: FP competition with AJAP-1probe.
The target of experiment [2] is Sushi domains (SD1/2) protein of GABAB1a (GB1a). Kind of experiment: FP competition vs TAMRA AJAP-1probe.
Chain of Sushi domains (SD1/2) protein of GABAB1a (GB1a) (Q9Z0U4 29-158): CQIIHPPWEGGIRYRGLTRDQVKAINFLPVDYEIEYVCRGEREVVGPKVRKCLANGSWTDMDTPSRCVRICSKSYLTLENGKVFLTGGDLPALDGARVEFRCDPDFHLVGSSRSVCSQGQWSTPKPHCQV
For experiment [3], the target named is Sushi domains (SD1/2) protein of the GABAB1a (GB1a) subunit, recombinant. The experiment is described as follows: FP competition, N-methylation scan.
Chain of Sushi domains (SD1/2) protein of the GABAB1a (GB1a) subunit, recombinant (Q9Z0U4 29-158): as above
For experiment [4] the target is unchanged. The experiment is described as follows: FP competition.
For experiment [5] the target is unchanged. Kind of experiment: FP competition. The source holds these as a separate data set.
Experiment [6] has the same target. The experiment is described as follows: FP inhibition.
Experiment [7] has the same target. Kind of experiment: FP inhibition, six-point, crude peptide of the solution array.
For experiment [8] the target is unchanged. The experiment is described as follows: FP competition. This is another data set of the same source.
The target is the same in experiment [9]. The experiment is described as follows: FP competition; end of the range assigned from the Ki values of Table 2.

As to Ac-DDSDVWWGG-NH2, in [1], the Ki is 2630 nM.

B1: …(N-Me-G)ADTD (peptide)
peptide: Ac-EDDSDVWWG[Sar]ADTD-NH2
SMILES: CC(=O)N[C@@H](CCC(=O)O)C(=O)N[C@@H](CC(=O)O)C(=O)N[C@@H](CC(=O)O)C(=O)N[C@@H](CO)C(=O)N[C@@H](CC(=O)O)C(=O)N[C@H](C(=O)N[C@@H](Cc1c[nH]c2ccccc12)C(=O)N[C@@H](Cc1c[nH]c2ccccc12)C(=O)NCC(=O)N(C)CC(=O)N[C@@H](C)C(=O)N[C@@H](CC(=O)O)C(=O)N[C@H](C(=O)N[C@@H](CC(=O)O)C(N)=O)[C@@H](C)O)C(C)C
As to B1, the Ki in experiment [2] and in experiment [4] was 161 nM in each case. For the same molecule, in experiment [3], the fold increased affinity against APPWT is 3 fold.

With Ac-DSADAEEDDSDVWWG-NH2 [peptide 11 (…)], the Ki in experiment [1] came out at 5030 nM.

Ac-ETEFIAWGPTGDED-NH2 [AJAP-1WT (Ac-…-NH2)]: the Ki in [4] came to 32 nM; in experiment [5], 31 nM. On to Ac-EDDSDVWWGGADTDY-NH2 [peptide 13 (…)], for which the Ki in experiment [1] is 581 nM. Consider Ac-EDDSDVWWGPTGDED-NH2 [hybrid peptide X (Ac-…-NH2)], for which the fold higher affinity than APPWT in experiment [4] stood at 10 fold. Besides, the Ki in experiment [5] is 62 nM.

For Ac-AIVWGPTVSREDGGD-NH2, in experiment [1], the Ki came to 637 nM. On the same count and under the same terms, under Ac-TTETEFIAWGPTGDE-NH2 stands 73 nM.

B2: R4-20 (Ac-RRRREDDD(2Nala)…-NH2) (peptide)
peptide: Ac-RRRREDDD[2Nal]IDWYDSDDD-NH2
SMILES: CC[C@H](C)[C@H](NC(=O)[C@H](Cc1ccc2ccccc2c1)NC(=O)[C@H](CC(=O)O)NC(=O)[C@H](CC(=O)O)NC(=O)[C@H](CC(=O)O)NC(=O)[C@H](CCC(=O)O)NC(=O)[C@H](CCCNC(=N)N)NC(=O)[C@H](CCCNC(=N)N)NC(=O)[C@H](CCCNC(=N)N)NC(=O)[C@H](CCCNC(=N)N)NC(C)=O)C(=O)N[C@@H](CC(=O)O)C(=O)N[C@@H](Cc1c[nH]c2ccccc12)C(=O)N[C@@H](Cc1ccc(O)cc1)C(=O)N[C@@H](CC(=O)O)C(=O)N[C@@H](CO)C(=O)N[C@@H](CC(=O)O)C(=O)N[C@@H](CC(=O)O)C(=O)N[C@@H](CC(=O)O)C(N)=O
In the case of B2, the Ki in experiment [4] came to 12 nM. For the same molecule, the fold higher affinity than 4R-16 in experiment [6] amounted to 2 fold.

B3: peptide 34 (Ac-EDDD(Oetyr)…-NH2) (peptide)
peptide: Ac-EDDD[Oetyr]IDWGPTSDDD-NH2
SMILES: CCOc1ccc(C[C@H](NC(=O)[C@H](CC(=O)O)NC(=O)[C@H](CC(=O)O)NC(=O)[C@H](CC(=O)O)NC(=O)[C@H](CCC(=O)O)NC(C)=O)C(=O)N[C@H](C(=O)N[C@@H](CC(=O)O)C(=O)N[C@@H](Cc2c[nH]c3ccccc23)C(=O)NCC(=O)N2CCC[C@H]2C(=O)N[C@H](C(=O)N[C@@H](CO)C(=O)N[C@@H](CC(=O)O)C(=O)N[C@@H](CC(=O)O)C(=O)N[C@@H](CC(=O)O)C(N)=O)[C@@H](C)O)[C@@H](C)CC)cc1
Consider B3, for which, in experiment [5], the Ki is 6.5 nM.

As for Ac-WAIVWGPTVSREDGG-NH2, the inhibition constant Ki in experiment [1] stood at 1350 nM. As for Ac-EEDDSDVWWGGADTDYAD-NH2 [Peptide 36 (Ac-…-NH2)], the Ki in experiment [4] was 244 nM and 233 nM; in experiment [1], 244 nM. Take Ac-PWAIVWGPTVSREDG-NH2 [peptide 14 (…)]: the inhibitory constant (Ki) in experiment [1] is 465 nM. Regarding Ac-EDDSWVWWGGADTD-NH2 [… (APPWT mutant D207W)], the values for the Ki in experiment [7] and in [4] were 78 nM and 100 nM, respectively. Turning to Ac-TETEFIAWGPTGDED-NH2 [peptide 15 (Ac-…-NH2)], the Ki is 26 nM in [4] and 23 nM in experiment [1].

As for Ac-PWAIVWGPTVSRED-NH2 [PIANPWT (Ac-…-NH2)], the Ki turned out to be 476 nM in experiment [8] and 762 nM in experiment [4]. Take Ac-ADAEEDDSDVWWGGA-NH2: the inhibition constant Ki in experiment [1] amounted to 1530 nM. Still for that read-out and setting: the value for Ac-DDSDVWWGGADTDYADG-NH2 was 687 nM; that for Ac-SADAEEDDSDVWWGG-NH2 [peptide 12 (…)] was 1300 nM. On to Ac-EDDSWIWWGPTGDED-NH2 [peptide 27 (Ac-…-NH2)], for which the fold better affinity than 9 in experiment [4] was found to be 3.8 fold. Moreover, in experiment [5], the Ki turned out to be 16 nM. With Ac-EDDSDVWWGGADTD-NH2 [APPWT (Ac-…-NH2)], the inhibition constant (Ki) worked out at 635 nM in [7] and 557 nM in [5]. Ac-RRRRRRRREDDDWIDWYDSDDD-NH2 [R8-16 (Ac-…-NH2)]: the fold loss of affinity against the untagged peptide in experiment [9] is 12 to 33 fold. Moreover, in [4], the Ki was found to be 107 nM. On to Ac-EDDSDVWWYGADTD-NH2 [… (APPWT mutant G211Y)], for which the Ki in experiment [7] came to 167 nM; in [4], 108 nM.

B4: peptide 35 (Ac-EDDD(Obtyr)…-NH2) (peptide)
peptide: Ac-EDDD[Obtyr]IDWGPTSDDD-NH2
SMILES: CC[C@H](C)[C@H](NC(=O)[C@H](Cc1ccc(OCc2ccccc2)cc1)NC(=O)[C@H](CC(=O)O)NC(=O)[C@H](CC(=O)O)NC(=O)[C@H](CC(=O)O)NC(=O)[C@H](CCC(=O)O)NC(C)=O)C(=O)N[C@@H](CC(=O)O)C(=O)N[C@@H](Cc1c[nH]c2ccccc12)C(=O)NCC(=O)N1CCC[C@H]1C(=O)N[C@H](C(=O)N[C@@H](CO)C(=O)N[C@@H](CC(=O)O)C(=O)N[C@@H](CC(=O)O)C(=O)N[C@@H](CC(=O)O)C(N)=O)[C@@H](C)O
Take B4: in experiment [5], the Ki is 9.5 nM.

The term Ki denotes a measure of affinity in units of concentration, obtained from inhibition or displacement.
